The sequences below were run on Escherichia coli TOP10 (assay: shrunken log2 fold change of peptide-encoding DNA abundance (4.5 h post-induction vs induction); higher = less antimicrobial activity (less host growth inhibition)). Settings: time post-induction: 4.5 h; library: site-saturation at positions 5, 18, 19, 20.
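Further: peptides expressed intracellularly from a pBAD plasmid library in pooled LB shake-flask culture, induced with 0.3% L-arabinose, DNA abundance read by NGS, three biological replicates, DESeq2 with apeglm shrinkage.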

| Sequence | shrunken log2 fold change |
| --- | --- |
| RRIRCRPPRLPRPRPRPLHKPRP | -0.0345 |
| RRIRKRPPRLPRPRPRPPIEPRP | 0.223 |
| RRIRSRPPRLPRPRPRPFDFPRP | -0.241 |
| RRIRHRPPRLPRPRPRPIRNPRP | -0.387 |
| RRIRHRPPRLPRPRPRPFFWPRP | 0.093 |
| RRIRIRPPRLPRPRPRPHVYPRP | -0.112 |
| RRIRNRPPRLPRPRPRPKSWPRP | 0.432 |
| RRIRDRPPRLPRPRPRPFTSPRP | -0.0273 |
| RRIRVRPPRLPRPRPRPCKTPRP | -0.00208 |
| RRIRERPPRLPRPRPRPHFLPRP | -0.458 |
| RRIRLRPPRLPRPRPRPLRDPRP | 0.356 |
| RRIRCRPPRLPRPRPRPSWDPRP | -0.134 |
| RRIRFRPPRLPRPRPRPRFPPRP | 0.0497 |
| RRIRVRPPRLPRPRPRPPVLPRP | -0.201 |
| RRIRCRPPRLPRPRPRPGYDPRP | -0.167 |
| RRIRCRPPRLPRPRPRPNWFPRP | -0.201 |
| RRIRHRPPRLPRPRPRPQKWPRP | -0.875 |
| RRIRDRPPRLPRPRPRPRRWPRP | 0.453 |
| RRIRYRPPRLPRPRPRPNAMPRP | -0.166 |
| RRIRFRPPRLPRPRPRPADAPRP | 0.147 |
| RRIRIRPPRLPRPRPRPYWEPRP | -0.152 |
| RRIRYRPPRLPRPRPRPQLWPRP | 0.0782 |
| RRIRGRPPRLPRPRPRPASKPRP | 0.453 |
| RRIRDRPPRLPRPRPRPYNLPRP | -0.0574 |
| RRIRKRPPRLPRPRPRPFDGPRP | 0.23 |

| Sequence | shrunken log2 fold change |
| --- | --- |
| RRIRKRPPRLPRPRPRPDCAPRP | 1.1 |
| RRIRPRPPRLPRPRPRPFNKPRP | -0.468 |
| RRIRCRPPRLPRPRPRPRSNPRP | -0.349 |
| RRIRTRPPRLPRPRPRPCRAPRP | -0.0539 |
| RRIRERPPRLPRPRPRPGNWPRP | -0.0108 |
| RRIRVRPPRLPRPRPRPHDVPRP | -0.116 |
| RRIRSRPPRLPRPRPRPGQHPRP | 0.178 |
| RRIRLRPPRLPRPRPRPIEAPRP | -0.00911 |
| RRIRPRPPRLPRPRPRPMHRPRP | 0.0978 |
| RRIRKRPPRLPRPRPRPEHSPRP | 0.00628 |
| RRIRGRPPRLPRPRPRPIETPRP | 0.312 |
| RRIRIRPPRLPRPRPRPMWYPRP | -0.554 |
| RRIRPRPPRLPRPRPRPALKPRP | 0.128 |
| RRIRWRPPRLPRPRPRPRDLPRP | 0.276 |
| RRIRKRPPRLPRPRPRPTLWPRP | 1.19 |
| RRIRMRPPRLPRPRPRPFYIPRP | -0.31 |
| RRIRYRPPRLPRPRPRPHNEPRP | -0.675 |
| RRIRFRPPRLPRPRPRPGNSPRP | 0.00114 |
| RRIRWRPPRLPRPRPRPEHIPRP | -0.14 |
| RRIRCRPPRLPRPRPRPDQVPRP | -0.183 |
| RRIRNRPPRLPRPRPRPCVPPRP | -0.00911 |
| RRIRFRPPRLPRPRPRPDCTPRP | -0.0512 |
| RRIRDRPPRLPRPRPRPQRSPRP | 0.0502 |
| RRIRQRPPRLPRPRPRPAWVPRP | 0.0382 |
| RRIRERPPRLPRPRPRPHMQPRP | -0.551 |

| Sequence | shrunken log2 fold change |
| --- | --- |
| RRIRFRPPRLPRPRPRPENAPRP | 0.402 |
| RRIRIRPPRLPRPRPRPDNSPRP | -1.35 |
| RRIRKRPPRLPRPRPRPAQVPRP | 0.296 |
| RRIRIRPPRLPRPRPRPQSFPRP | 0.0784 |
| RRIRYRPPRLPRPRPRPFVRPRP | 0.00599 |
| RRIRKRPPRLPRPRPRPEWLPRP | 0.576 |
| RRIRMRPPRLPRPRPRPWDHPRP | 0.0477 |
| RRIRGRPPRLPRPRPRPSPMPRP | 0.474 |
| RRIRARPPRLPRPRPRPIKRPRP | 0.0415 |
| RRIRNRPPRLPRPRPRPRDPPRP | 0.457 |
| RRIRKRPPRLPRPRPRPEHLPRP | 0.132 |
| RRIRHRPPRLPRPRPRPKTEPRP | -0.0292 |
| RRIRLRPPRLPRPRPRPMEGPRP | 0.0303 |
| RRIRKRPPRLPRPRPRPAESPRP | 0.563 |
| RRIRARPPRLPRPRPRPKMNPRP | 0.0254 |
| RRIRYRPPRLPRPRPRPYCHPRP | -0.435 |
| RRIRCRPPRLPRPRPRPRDEPRP | 0.342 |
| RRIRCRPPRLPRPRPRPIFCPRP | -0.339 |
| RRIRERPPRLPRPRPRPNAFPRP | -0.568 |
| RRIRYRPPRLPRPRPRPFVHPRP | -1.49 |
| RRIRDRPPRLPRPRPRPYMSPRP | -0.00753 |
| RRIRIRPPRLPRPRPRPADGPRP | 0.276 |
| RRIRSRPPRLPRPRPRPGIRPRP | 0.694 |
| RRIRGRPPRLPRPRPRPHFCPRP | 0.117 |
| RRIRIRPPRLPRPRPRPHMEPRP | -0.332 |

| Sequence | shrunken log2 fold change |
| --- | --- |
| RRIRFRPPRLPRPRPRPYDDPRP | -0.0579 |
| RRIRWRPPRLPRPRPRPDQHPRP | -0.00431 |
| RRIRLRPPRLPRPRPRPLISPRP | -0.506 |
| RRIRKRPPRLPRPRPRPMRMPRP | 1.84 |
| RRIRPRPPRLPRPRPRPEYQPRP | 0.288 |
| RRIRGRPPRLPRPRPRPCHDPRP | 0.458 |
| RRIRIRPPRLPRPRPRPHGKPRP | -0.326 |
| RRIRFRPPRLPRPRPRPPHDPRP | 0.336 |
| RRIRRRPPRLPRPRPRPIYLPRP | -0.205 |
| RRIRFRPPRLPRPRPRPYQFPRP | 0.0166 |
| RRIRDRPPRLPRPRPRPNRQPRP | -0.0252 |
| RRIRTRPPRLPRPRPRPAAAPRP | 0.618 |
| RRIRLRPPRLPRPRPRPQNIPRP | -0.512 |
| RRIRNRPPRLPRPRPRPAIMPRP | -0.0978 |
| RRIRMRPPRLPRPRPRPMLNPRP | -0.0171 |
| RRIRNRPPRLPRPRPRPSICPRP | -0.328 |
| RRIRFRPPRLPRPRPRPTQEPRP | 0.321 |
| RRIRFRPPRLPRPRPRPIQGPRP | 0.0616 |
| RRIRHRPPRLPRPRPRPMYTPRP | 0.588 |
| RRIRFRPPRLPRPRPRPRIGPRP | 0.543 |
| RRIRKRPPRLPRPRPRPDPFPRP | -0.0704 |
| RRIRPRPPRLPRPRPRPLWTPRP | 0.0798 |
| RRIRLRPPRLPRPRPRPYRNPRP | -1.13 |
| RRIRIRPPRLPRPRPRPSLSPRP | -0.692 |
| RRIRGRPPRLPRPRPRPTLSPRP | 0.313 |

| Sequence | shrunken log2 fold change |
| --- | --- |
| RRIRGRPPRLPRPRPRPIIKPRP | 0.237 |
| RRIRGRPPRLPRPRPRPKLPPRP | 0.821 |
| RRIRIRPPRLPRPRPRPGCYPRP | -0.715 |
| RRIRRRPPRLPRPRPRPFHTPRP | -0.0624 |
| RRIRNRPPRLPRPRPRPLRVPRP | 0.896 |
| RRIRNRPPRLPRPRPRPLYMPRP | -0.308 |
| RRIRNRPPRLPRPRPRPGYMPRP | -0.281 |
| RRIRGRPPRLPRPRPRPSKSPRP | -0.0596 |
| RRIRQRPPRLPRPRPRPLQGPRP | 0.0512 |
| RRIRGRPPRLPRPRPRPVNRPRP | -0.0382 |
| RRIRMRPPRLPRPRPRPSMFPRP | -0.368 |
| RRIRKRPPRLPRPRPRPPRAPRP | 1.15 |
| RRIRWRPPRLPRPRPRPKICPRP | 0.357 |
| RRIRFRPPRLPRPRPRPHEEPRP | 0.00592 |
| RRIRSRPPRLPRPRPRPNMYPRP | -0.635 |
| RRIRIRPPRLPRPRPRPLFSPRP | -0.423 |
| RRIRIRPPRLPRPRPRPMHTPRP | 0.0542 |
| RRIRPRPPRLPRPRPRPEEGPRP | -0.0155 |
| RRIRFRPPRLPRPRPRPTMTPRP | -0.0114 |
| RRIRIRPPRLPRPRPRPEYSPRP | -0.119 |
| RRIRRRPPRLPRPRPRPEGFPRP | 0.151 |
| RRIRPRPPRLPRPRPRPGTTPRP | 0.195 |
| RRIRGRPPRLPRPRPRPHIAPRP | 2.17 |
| RRIRLRPPRLPRPRPRPSDSPRP | -0.498 |
| RRIRCRPPRLPRPRPRPYYWPRP | -0.992 |

| Sequence | shrunken log2 fold change |
| --- | --- |
| RRIRRRPPRLPRPRPRPGTWPRP | 0.0793 |
| RRIRRRPPRLPRPRPRPKIHPRP | 0.02 |
| RRIRWRPPRLPRPRPRPEELPRP | -0.00088 |
| RRIRHRPPRLPRPRPRPINEPRP | -0.99 |
| RRIRERPPRLPRPRPRPHRKPRP | -0.0945 |
| RRIRIRPPRLPRPRPRPAHCPRP | 0.0837 |
| RRIRMRPPRLPRPRPRPDFRPRP | 0.146 |
| RRIRFRPPRLPRPRPRPYYDPRP | -0.072 |
| RRIRKRPPRLPRPRPRPFMMPRP | -0.1 |
| RRIRYRPPRLPRPRPRPGPLPRP | -0.151 |
| RRIRPRPPRLPRPRPRPGCVPRP | 0.447 |
| RRIRERPPRLPRPRPRPLTEPRP | -0.298 |
| RRIRFRPPRLPRPRPRPTNHPRP | -0.536 |
| RRIRSRPPRLPRPRPRPSDDPRP | -0.274 |
| RRIRRRPPRLPRPRPRPSAQPRP | 0.234 |
| RRIRGRPPRLPRPRPRPLSLPRP | 0.419 |
| RRIRVRPPRLPRPRPRPYGKPRP | -0.289 |
| RRIRARPPRLPRPRPRPDIIPRP | 0.363 |
| RRIRKRPPRLPRPRPRPWIGPRP | 0.0664 |
| RRIRQRPPRLPRPRPRPLFPPRP | 0.0501 |
| RRIRMRPPRLPRPRPRPQLAPRP | 0.598 |
| RRIRCRPPRLPRPRPRPIKHPRP | -0.389 |
| RRIRMRPPRLPRPRPRPWRVPRP | -0.158 |
| RRIRKRPPRLPRPRPRPNALPRP | 0.301 |
| RRIRYRPPRLPRPRPRPYYHPRP | -0.283 |
